Experiments:
Assay in all cases: cell_activity
[1] = system: nd4 mitoTALE nuclease left; conditions: with nd5 and atp8 nickases; deletions also with nuclease alone
[2] = system: nd4 mito-nickase (2) left TALE-FokI; conditions: zebrafish embryos; both nd4 nickase pairs co-injected
[3] = system: nd4 mito-nickase (1) right TALE-FokI; conditions: zebrafish embryos; both nd4 nickase pairs co-injected
[4] = system: nd4 mitoTALE nuclease right; conditions: with nd5 and atp8 nickases; deletions also with nuclease alone
[5] = system: nd5 mito-nickase left TALE-FokI; conditions: nearly 30%; with atp8 nickase
[6] = system: nd4 mito-nickase (2) right TALE-FokI; conditions: zebrafish embryos; both nd4 nickase pairs co-injected
[7] = system: atp8 mito-nickase left TALE-FokI; conditions: nearly 30%; with nd5 nickase
[8] = system: nd5 mito-nickase right TALE-FokI; conditions: nearly 30%; with atp8 nickase
[9] = system: atp8 mito-nickase right TALE-FokI; conditions: nearly 30%; with nd5 nickase
[10] = system: nd4 mito-nickase (1) left TALE-FokI; conditions: zebrafish embryos; both nd4 nickase pairs co-injected

Sequence: CGGGTAATAATGATT (double strand) [nd4 nuclease left site]
- activity (% embryos with deletion) [1]: > 90

Sequence: ACGAGTTAGAAGCAT (double strand) [nd4 nickase (2) left site]
- activity (% embryos with deletion) [2]: 50

Sequence: TTACACCTAATTCCT (double strand) [nd4 nickase (1) right site]
- activity (% embryos with deletion) [3]: 50

Sequence: TATATTCGAAGCTAC (double strand) [nd4 nuclease right site]
- activity (% embryos with deletion) [4]: > 90

Sequence: GCTAGATGTGGTTGG (double strand) [nd5 nickase left site]
- activity (% embryos with deletion) [5]: 30

Sequence: GACTAAAATGAACCT (double strand) [nd4 nickase (2) right site]
- activity (% embryos with deletion) [6]: 50

Sequence: TAGGTTGAATGTGAT (double strand) [atp8 nickase left site]
- activity (% embryos with deletion) [7]: 30

Sequence: AGGGCTAATGATAGT (double strand) [nd5 nickase right site]
- activity (% embryos with deletion) [8]: 30

Sequence: TCCTTACTATTATTC (double strand) [atp8 nickase right site]
- activity (% embryos with deletion) [9]: 30

Sequence: AAGTTCTGGTTTTAA (double strand) [nd4 nickase (1) left site]
- activity (% embryos with deletion) [10]: 50

Reference: US20220162583
